Assay results reported in the MegaScale stability set (Tsuboyama et al. 2023).

B1: EHEE_rd2_0196 (parent)
chain: TETRTFDSEEEAKKAQKEAEKQGRTVTITRRDDRWEVRFD

Variants of: B1
Assay: folding stability dG (cDNA display proteolysis); higher = more stable
Conditions: PBS, room temperature

Variant	folding stability dG
T1A	3.08 kcal/mol
T1C	2.81 kcal/mol
T1D	2.95 kcal/mol
T1E	2.93 kcal/mol
T1F	3.38 kcal/mol
T1G	2.96 kcal/mol
T1H	3.05 kcal/mol
T1I	3.08 kcal/mol
T1K	2.76 kcal/mol
T1L	3.04 kcal/mol
T1M	3.12 kcal/mol
T1N	2.93 kcal/mol
T1P	3.02 kcal/mol
T1Q	2.98 kcal/mol
T1R	2.81 kcal/mol
T1S	3.13 kcal/mol
T1V	3.21 kcal/mol
T1W	3.67 kcal/mol
T1Y	3.48 kcal/mol
E2A	2.84 kcal/mol
E2D	2.71 kcal/mol
E2F	3.13 kcal/mol
E2G	2.79 kcal/mol
E2H	3.05 kcal/mol

Variant	folding stability dG
E2I	3.23 kcal/mol
E2K	2.86 kcal/mol
E2L	2.98 kcal/mol
E2M	2.95 kcal/mol
E2N	2.94 kcal/mol
E2P	2.48 kcal/mol
E2Q	3.03 kcal/mol
E2R	2.89 kcal/mol
E2S	2.95 kcal/mol
E2T	3.11 kcal/mol
E2V	3.15 kcal/mol
E2W	3.24 kcal/mol
E2Y	3.19 kcal/mol
T3A	2.66 kcal/mol
T3C	3.22 kcal/mol
T3D	1.93 kcal/mol
T3E	2.08 kcal/mol
T3F	3.2 kcal/mol
T3G	2.17 kcal/mol
T3H	2.55 kcal/mol
T3I	3.35 kcal/mol
T3K	2.48 kcal/mol
T3L	3.15 kcal/mol
T3M	3.03 kcal/mol

Variant	folding stability dG
T3N	2.33 kcal/mol
T3P	2.73 kcal/mol
T3Q	2.46 kcal/mol
T3R	2.54 kcal/mol
T3S	2.62 kcal/mol
T3V	3.38 kcal/mol
T3W	3.06 kcal/mol
T3Y	3.11 kcal/mol
R4A	2.65 kcal/mol
R4D	1.6 kcal/mol
R4E	2.36 kcal/mol
R4F	3.15 kcal/mol
R4G	1.85 kcal/mol
R4H	2.77 kcal/mol
R4I	3.1 kcal/mol
R4K	2.9 kcal/mol
R4L	3.43 kcal/mol
R4M	3.24 kcal/mol
R4N	2.11 kcal/mol
R4P	1.25 kcal/mol
R4Q	2.93 kcal/mol
R4S	2.3 kcal/mol
R4T	2.54 kcal/mol
R4V	2.99 kcal/mol

Variant	folding stability dG
R4W	3.49 kcal/mol
R4Y	3.12 kcal/mol
T5A	2.43 kcal/mol
T5C	2.5 kcal/mol
T5D	2.04 kcal/mol
T5E	2.57 kcal/mol
T5F	3.75 kcal/mol
T5G	1.73 kcal/mol
T5H	2.71 kcal/mol
T5I	3.42 kcal/mol
T5K	2.09 kcal/mol
T5L	3.46 kcal/mol
T5M	3.42 kcal/mol
T5N	2.3 kcal/mol
T5P	1.24 kcal/mol
T5Q	2.63 kcal/mol
T5R	2.35 kcal/mol
T5S	2.81 kcal/mol
T5V	3.37 kcal/mol
T5W	4.03 kcal/mol
T5Y	3.96 kcal/mol
F6A	0.553 kcal/mol
F6D	0.02 kcal/mol
F6E	0.25 kcal/mol

Variant	folding stability dG
F6G	0.049 kcal/mol
F6H	0.637 kcal/mol
F6I	0.565 kcal/mol
F6K	0.23 kcal/mol
F6L	1.22 kcal/mol
F6M	1.24 kcal/mol
F6N	0.174 kcal/mol
F6P	-0.092 kcal/mol
F6Q	0.251 kcal/mol
F6R	0.142 kcal/mol
F6S	0.282 kcal/mol
F6T	0.546 kcal/mol
F6V	1.65 kcal/mol
F6W	1.28 kcal/mol
F6Y	3.19 kcal/mol
D7A	2.92 kcal/mol
D7E	2.78 kcal/mol
D7F	3.22 kcal/mol
D7G	2.74 kcal/mol
D7H	2.61 kcal/mol
D7I	2.46 kcal/mol
D7K	2.52 kcal/mol
D7L	2.87 kcal/mol
D7M	2.82 kcal/mol

Variant	folding stability dG
D7N	2.75 kcal/mol
D7P	2.58 kcal/mol
D7Q	2.54 kcal/mol
D7R	2.46 kcal/mol
D7S	2.84 kcal/mol
D7T	2.76 kcal/mol
D7V	2.51 kcal/mol
D7W	3.19 kcal/mol
D7Y	3.18 kcal/mol
S8A	1.68 kcal/mol
S8D	2.27 kcal/mol
S8E	1.66 kcal/mol
S8F	1.8 kcal/mol
S8G	1.56 kcal/mol
S8H	2.12 kcal/mol
S8I	1.77 kcal/mol
S8K	2.11 kcal/mol
S8L	2.02 kcal/mol
S8M	1.63 kcal/mol
S8N	2.79 kcal/mol
S8P	0.072 kcal/mol
S8Q	1.82 kcal/mol
S8R	2.12 kcal/mol
S8T	3.37 kcal/mol

Variant	folding stability dG
S8V	1.78 kcal/mol
S8W	1.13 kcal/mol
S8Y	1.64 kcal/mol
E9A	2.01 kcal/mol
E9D	1.47 kcal/mol
E9F	3.42 kcal/mol
E9G	1.03 kcal/mol
E9H	2.28 kcal/mol
E9I	2.73 kcal/mol
E9K	1.66 kcal/mol
E9L	3.33 kcal/mol
E9M	2.38 kcal/mol
E9N	1.26 kcal/mol
E9P	1.92 kcal/mol
E9Q	2.18 kcal/mol
E9R	1.49 kcal/mol
E9S	1.42 kcal/mol
E9T	0.823 kcal/mol
E9V	2.25 kcal/mol
E9W	3.38 kcal/mol
E9Y	3.58 kcal/mol
E10A	2.86 kcal/mol
E10C	3.04 kcal/mol
